Laboratory results published in patent publication US20160024487.

Columns and labels:
[1] = tested on: T1, Lys(Dnp)-ATNATX4X3PRIVGG-Lys(Abz), X4 = Q, X3 = L
T1 sequence: KATNATQLPRIVGGK

[2] = tested on: T2, Lys(Dnp)-ATNATX4X3PRIVGG-Lys(Abz), X4 = S, X3 = T
T2 sequence: KATNATSTPRIVGGK

[3] = tested on: T3, Lys(Dnp)-ATNATX4X3PRIVGG-Lys(Abz), X4 = V, X3 = D
T3 sequence: KATNATVDPRIVGGK

[4] = tested on: T4, Lys(Dnp)-ATNATX4X3PRIVGG-Lys(Abz), X4 = G, X3 = Y
T4 sequence: KATNATGYPRIVGGK

[5] = tested on: T5, Lys(Dnp)-ATNATX4X3PRIVGG-Lys(Abz), X4 = E, X3 = T
T5 sequence: KATNATETPRIVGGK

[6] = tested on: T6, Lys(Dnp)-ATNATX4X3PRIVGG-Lys(Abz), X4 = S, X3 = P
T6 sequence: KATNATSPPRIVGGK

[7] = tested on: T7, Lys(Dnp)-ATNATX4X3PRIVGG-Lys(Abz), X4 = S, X3 = H
T7 sequence: KATNATSHPRIVGGK

[8] = tested on: T8, Lys(Dnp)-ATNATX4X3PRIVGG-Lys(Abz), X4 = N, X3 = Q
T8 sequence: KATNATNQPRIVGGK

[9] = tested on: T9, Lys(Dnp)-ATNATX4X3PRIVGG-Lys(Abz), X4 = G, X3 = G
T9 sequence: KATNATGGPRIVGGK

[10] = tested on: T10, Lys(Dnp)-ATNATX4X3PRIVGG-Lys(Abz), X4 = E, X3 = F
T10 sequence: KATNATEFPRIVGGK

[11] = tested on: T11, Lys(Dnp)-ATNATX4X3PRIVGG-Lys(Abz), X4 = Y, X3 = V
T11 sequence: KATNATYVPRIVGGK

[12] = tested on: T12, Lys(Dnp)-ATNATX4X3PRIVGG-Lys(Abz), X4 = V, X3 = L
T12 sequence: KATNATVLPRIVGGK

[13] = tested on: T13, Lys(Dnp)-ATNATX4X3PRIVGG-Lys(Abz), X4 = G, X3 = K
T13 sequence: KATNATGKPRIVGGK

[14] = tested on: T14, Lys(Dnp)-ATNATX4X3PRIVGG-Lys(Abz), X4 = H, X3 = A
T14 sequence: KATNATHAPRIVGGK

[15] = tested on: T15, Lys(Dnp)-ATNATX4X3PRIVGG-Lys(Abz), X4 = N, X3 = K
T15 sequence: KATNATNKPRIVGGK

[16] = tested on: T16, Lys(Dnp)-ATNATX4X3PRIVGG-Lys(Abz), X4 = T, X3 = V
T16 sequence: KATNATTVPRIVGGK

[17] = tested on: T17, Lys(Dnp)-ATNATX4X3PRIVGG-Lys(Abz), X4 = G, X3 = H
T17 sequence: KATNATGHPRIVGGK

[18] = tested on: T18, Lys(Dnp)-ATNATX4X3PRIVGG-Lys(Abz), X4 = S, X3 = M
T18 sequence: KATNATSMPRIVGGK

[19] = tested on: T19, Lys(Dnp)-ATNATX4X3PRIVGG-Lys(Abz), X4 = Q, X3 = W
T19 sequence: KATNATQWPRIVGGK

[20] = tested on: T20, Lys(Dnp)-ATNATX4X3PRIVGG-Lys(Abz), X4 = Q, X3 = T
T20 sequence: KATNATQTPRIVGGK

[21] = tested on: T21, Lys(Dnp)-ATNATX4X3PRIVGG-Lys(Abz), X4 = H, X3 = R
T21 sequence: KATNATHRPRIVGGK

[22] = tested on: T22, Lys(Dnp)-ATNATX4X3PRIVGG-Lys(Abz), X4 = N, X3 = S
T22 sequence: KATNATNSPRIVGGK

[23] = tested on: T23, Lys(Dnp)-ATNATX4X3PRIVGG-Lys(Abz), X4 = F, X3 = D
T23 sequence: KATNATFDPRIVGGK

[24] = tested on: T24, Lys(Dnp)-ATNATX4X3PRIVGG-Lys(Abz), X4 = Q, X3 = V
T24 sequence: KATNATQVPRIVGGK

[25] = tested on: T25, Lys(Dnp)-ATNATX4X3PRIVGG-Lys(Abz), X4 = N, X3 = T
T25 sequence: KATNATNTPRIVGGK

[26] = tested on: T26, Lys(Dnp)-ATNATX4X3PRIVGG-Lys(Abz), X4 = G, X3 = A
T26 sequence: KATNATGAPRIVGGK

[27] = tested on: T27, Lys(Dnp)-ATNATX4X3PRIVGG-Lys(Abz), X4 = T, X3 = N
T27 sequence: KATNATTNPRIVGGK

[28] = tested on: T28, Lys(Dnp)-ATNATX4X3PRIVGG-Lys(Abz), X4 = H, X3 = F
T28 sequence: KATNATHFPRIVGGK

[29] = tested on: T29, Lys(Dnp)-ATNATX4X3PRIVGG-Lys(Abz), X4 = S, X3 = S
T29 sequence: KATNATSSPRIVGGK

[30] = tested on: T30, Lys(Dnp)-ATNATX4X3PRIVGG-Lys(Abz), X4 = Y, X3 = I
T30 sequence: KATNATYIPRIVGGK

[31] = tested on: T31, Lys(Dnp)-ATNATX4X3PRIVGG-Lys(Abz), X4 = G, X3 = I
T31 sequence: KATNATGIPRIVGGK

[32] = tested on: T32, Lys(Dnp)-ATNATX4X3PRIVGG-Lys(Abz), X4 = T, X3 = G
T32 sequence: KATNATTGPRIVGGK

[33] = tested on: T33, Lys(Dnp)-ATNATX4X3PRIVGG-Lys(Abz), X4 = N, X3 = V
T33 sequence: KATNATNVPRIVGGK

[34] = tested on: T34, Lys(Dnp)-ATNATX4X3PRIVGG-Lys(Abz), X4 = H, X3 = S
T34 sequence: KATNATHSPRIVGGK

[35] = tested on: T35, Lys(Dnp)-ATNATX4X3PRIVGG-Lys(Abz), X4 = N, X3 = H
T35 sequence: KATNATNHPRIVGGK

[36] = tested on: T36, Lys(Dnp)-ATNATX4X3PRIVGG-Lys(Abz), X4 = T, X3 = A
T36 sequence: KATNATTAPRIVGGK

[37] = tested on: T37, Lys(Dnp)-ATNATX4X3PRIVGG-Lys(Abz), X4 = T, X3 = F
T37 sequence: KATNATTFPRIVGGK

[38] = tested on: T38, Lys(Dnp)-ATNATX4X3PRIVGG-Lys(Abz), X4 = N, X3 = F
T38 sequence: KATNATNFPRIVGGK

[39] = tested on: T39, Lys(Dnp)-ATNATX4X3PRIVGG-Lys(Abz), X4 = E, X3 = W
T39 sequence: KATNATEWPRIVGGK

Human plasma purified Factor Xa showed an FXa kcat/KM [1] of 480 M⁻¹ s⁻¹, an FXa kcat/KM [2] of 32 M⁻¹ s⁻¹ and an FXa kcat/KM [3] of 70 M⁻¹ s⁻¹. For the same substance, the FXa kcat/KM [4] was 34 M⁻¹ s⁻¹, the FXa kcat/KM [5] was 7.9 M⁻¹ s⁻¹ and the FXa kcat/KM [6] was 13 M⁻¹ s⁻¹. For the same substance, the FXa kcat/KM [7] was 24 M⁻¹ s⁻¹, the FXa kcat/KM [8] was 27 M⁻¹ s⁻¹ and the FXa kcat/KM [9] was 16 M⁻¹ s⁻¹. For the same substance, the FXa kcat/KM [10] was 14 M⁻¹ s⁻¹, the FXa kcat/KM [11] was 49 M⁻¹ s⁻¹ and the FXa kcat/KM [12] was 330 M⁻¹ s⁻¹. For the same substance, the FXa kcat/KM [13] was 34 M⁻¹ s⁻¹, the FXa kcat/KM [14] was 53 M⁻¹ s⁻¹ and the FXa kcat/KM [15] was 14 M⁻¹ s⁻¹. For the same substance, the FXa kcat/KM [16] was 20 M⁻¹ s⁻¹, the FXa kcat/KM [17] was 58 M⁻¹ s⁻¹ and the FXa kcat/KM [18] was 46 M⁻¹ s⁻¹. The FXa kcat/KM [19] was 1400 M⁻¹ s⁻¹, the FXa kcat/KM [20] was 920 M⁻¹ s⁻¹ and the FXa kcat/KM [21] was 140 M⁻¹ s⁻¹. The FXa kcat/KM [22] was 16 M⁻¹ s⁻¹, the FXa kcat/KM [23] was 63 M⁻¹ s⁻¹ and the FXa kcat/KM [24] was 430 M⁻¹ s⁻¹. It also gave an FXa kcat/KM [25] of 15 M⁻¹ s⁻¹, an FXa kcat/KM [26] of 50 M⁻¹ s⁻¹ and an FXa kcat/KM [27] of 13 M⁻¹ s⁻¹. It also gave an FXa kcat/KM [28] of 42 M⁻¹ s⁻¹, an FXa kcat/KM [29] of 40 M⁻¹ s⁻¹ and an FXa kcat/KM [30] of 66 M⁻¹ s⁻¹. The FXa kcat/KM [31] was 88 M⁻¹ s⁻¹, the FXa kcat/KM [32] was 21 M⁻¹ s⁻¹ and the FXa kcat/KM [33] was 17 M⁻¹ s⁻¹. For the same substance, the FXa kcat/KM [34] was 60 M⁻¹ s⁻¹, the FXa kcat/KM [35] was 15 M⁻¹ s⁻¹ and the FXa kcat/KM [36] was 20 M⁻¹ s⁻¹. The FXa kcat/KM [37] was 22 M⁻¹ s⁻¹, the FXa kcat/KM [38] was 14 M⁻¹ s⁻¹ and the FXa kcat/KM [39] was 8 M⁻¹ s⁻¹.
